# B1: Pistol ribozyme (parent)
# chain: GGGUCGUUGUUCCAUAAUCGCGUGGAUAUGGCACGCAAGUUUCUACCGGGCACCGUAAAUGUCCGACUGGAGCCGUUCGGGCGGCUAUAAACAGACCUCAGGCCCGAAGCGUGGCGGCACCUGCCGCCGGUGGUAAAAAAGAUCGGAAGAGCACACGUCU
# Variants of: B1
# Test: aptazyme ON/OFF ratio, guanine; higher = stronger switching; co-transcriptional cleavage with and without guanine
row,Variant,aptazyme ON/OFF ratio
1,U7G U8A G9A U10C U11C C12A C13U,1.08
2,U7G U8A G9A U10C U11C C12A C13A,1.07
3,U7G U8A G9A U10C U11C C12A C13G,1.25
4,U7G G9U U10G U11G C12G C13U,1.27
5,U7G G9U U10G U11G C12G C13A,1.1
6,U7G G9U U10G U11G C12G C13G,1.17
7,U7G G9U U10C U11G C12U C13A,1.22
8,U7G G9U U10C U11G C12U C13U,1.22
9,U7G G9U U10C U11G C12U C13G,1.23
10,U7G U8A G9A C12U C13U,1.08
11,U7G U8A G9A C12U C13A,1.13
12,U7G U8A G9A C12U C13G,1.1
13,U7G U8A G9A C12A C13G,1.11
14,U7G U8A G9A C12A C13U,1.1
15,U7G U8A G9A C12A C13A,1.25
16,U7G U8A G9A U10C U11C C12U,1.06
17,U7G U8A G9A U10C U11C C12G,1.09
18,U7G U8A G9A U10C U11C C12A,1.11
19,U7G U8A G9A U10C U11C C12U C13G,1.02
20,U7G U8A G9A U10C U11C C12U C13A,1.08
21,U7G U8A G9A U10C U11C C12U C13U,1.03

row,Variant,aptazyme ON/OFF ratio
1,U7G U8A,1.54
2,U7G U8A G9A U10A,1.77
3,U7G U8A G9A U10C,2.73
4,U7G U8A G9A U10G,1.49
5,U7G U8A G9A C13G,1.09
6,U7G U8A G9A C13A,1.25
7,U7G U8A G9A C13U,1.23
8,U7G U8A G9A U10C U11A C12G C13A,1.11
9,U7G U8A G9A U10C U11A C12G C13U,1.12
10,U7G U8A G9A U10C U11A C12G C13G,1.07
11,U7G U8A G9A U10G C12U C13U,1.13
12,U7G U8A G9A U10G C12U C13A,1.27
13,U7G U8A G9A U10G C12U C13G,1.35
14,U7G U8A G9A U10C U11G C12A C13U,1.13
15,U7G U8A G9A U10C U11G C12A C13G,1.07
16,U7G U8A G9A U10C U11G C12A C13A,1.07
17,U7G G9U U11C C12U C13U,1.31
18,U7G G9U U11C C12U C13G,1.3
19,U7G G9U U11C C12U C13A,1.37
20,U7G U8A G9A U10C U11C C12G C13U,1.08
21,U7G U8A G9A U10C U11C C12G C13G,1.03

row,Variant,aptazyme ON/OFF ratio
1,U7G U8A G9A U10C U11C C12G C13A,1.09
2,U7G U8A G9A U10A U11G C12A C13A,1.07
3,U7G U8A G9A U10A U11G C12A C13U,1.07
4,U7G U8A G9A U10A U11G C12A C13G,1.06
5,U7G U8A C13U,0.972
6,U7G U8A C13G,1.41
7,U7G U8A C13A,1.35
8,U7G U8A G9A U10A U11C C12A C13U,1.14
9,U7G U8A G9A U10A U11C C12A C13A,1.15
10,U7G U8A G9A U10A U11C C12A C13G,1.12
11,U7G G9U U10G U11C C12A C13A,1.14
12,U7G G9U U10G U11C C12A C13U,1.33
13,U7G G9U U10G U11C C12A C13G,1.23
14,U7G G9U U11A C12A C13U,1.43
15,U7G G9U U11A C12A C13A,1.3
16,U7G G9U U11A C12A C13G,1.23
17,U7G U8A G9A U10A U11C C13G,1.08
18,U7G U8A G9A U10A U11C C13U,1.05
19,U7G U8A G9A U10A U11C C13A,1.1
20,U7G U8A C12U C13A,1.43
21,U7G U8A C12U C13G,1.38

row,Variant,aptazyme ON/OFF ratio
1,U7G U8A C12U C13U,1.42
2,U7G G9U U10C U11A C13G,1.16
3,U7G G9U U10C U11A C13U,1.36
4,U7G G9U U10C U11A C13A,1.34
5,U7G U8A G9A U10C U11G C12G C13U,1.08
6,U7G U8A G9A U10C U11G C12G C13G,1.19
7,U7G U8A G9A U10C U11G C12G C13A,1.2
8,U7G G9U U11A C13A,1.34
9,U7G G9U U11A C13G,1.13
10,U7G G9U U11A C13U,1.27
11,U7G G9U U10G C12U C13U,1.25
12,U7G G9U U10G C12U C13G,1.34
13,U7G G9U U10G C12U C13A,1.28
14,U7G G9U U10C U11A C12G C13A,1.13
15,U7G G9U U10C U11A C12G C13G,1.13
16,U7G G9U U10C U11A C12G C13U,1.26
17,U7G G9U U10C U11G C12G,1.25
18,U7G G9U U10C U11G C12A,1.13
19,U7G G9U U10C U11G C12U,1.49
20,U7G U8A G9A U10C U11C C13G,1.02
